Data taken from patent publication EP2135619A1.

Target: human CC-chemokine receptor 2 (CCR2), endogenous on THP-1 cells, PBMC and whole blood cells (human) (UniProt P41597)
Assay: cell-based or functional assay

Sequence of UniProt P41597 (P41597 whole entry): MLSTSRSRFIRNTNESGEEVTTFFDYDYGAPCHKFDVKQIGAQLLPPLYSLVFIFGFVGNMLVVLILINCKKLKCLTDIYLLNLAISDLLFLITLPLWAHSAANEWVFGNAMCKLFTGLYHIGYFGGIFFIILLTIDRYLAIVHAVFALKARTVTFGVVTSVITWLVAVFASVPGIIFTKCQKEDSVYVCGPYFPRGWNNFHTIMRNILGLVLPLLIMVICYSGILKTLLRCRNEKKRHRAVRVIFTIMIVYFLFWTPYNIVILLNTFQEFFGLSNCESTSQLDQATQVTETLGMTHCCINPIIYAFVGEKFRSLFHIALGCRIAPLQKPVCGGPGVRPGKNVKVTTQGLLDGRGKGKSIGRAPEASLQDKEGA

murine monoclonal antibody LS132.1D9
MCP-1-induced chemotaxis of fresh PBMC: 10 µg/mL
